± gives the uncertainty stated by the source.
Experiment: amyloid nucleation score (Sup35N fusion, yeast selection) (log enrichment); library NNK3; higher = more nucleation; inactive = no reads after selection
Procedure, shortened: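 The nucleation score equals the log enrichment of output over input reads from DiMSum, centred on the mode score of non-aggregating sequences. It was computed only for sequences with 100 or more input reads. The reads came from Illumina sequencing of plasmid inserts from psi-negative yeast expressing Sup35N fused to peptides of 20 random codons, induced with 100 μM copper sulfate for 24 hours and grown 7 days at 30°C without adenine and uracil.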

## IITYKVS
  amyloid nucleation score: inactive

## TLCLQKHPSFGDYIFG
  amyloid nucleation score: inactive

## LYIWSIGLLEQLGNGMQASR
  amyloid nucleation score: inactive

## CSCQMSRFMRTLVCVFT
  amyloid nucleation score: inactive

## GALGSVMVNGRGVTSEGSPY
  amyloid nucleation score: 0.341 ± 0.39

## MWVGDKPSGSRRLVLGVRVT
  amyloid nucleation score: -0.258 ± 0.91

## HVMTHFG
  amyloid nucleation score: inactive

## LELDCASNRLSPNGIYMYFW
  amyloid nucleation score: 0.123 ± 0.35

## STVEENIY
  amyloid nucleation score: inactive

## MGMEIEQYNFTALLRD
  amyloid nucleation score: inactive

## NRIVQAFPSIGGFATNVCLC
  amyloid nucleation score: inactive

## SHLPCLFCYV
  amyloid nucleation score: inactive

## WKLGLK
  amyloid nucleation score: inactive

## TVYSTVSRDMNDKHFAGSTG
  amyloid nucleation score: inactive

## FSLLPKCLSLSGDRNGFKMC
  amyloid nucleation score: inactive

## LSPGTFCRVDSTPVWVNACP
  amyloid nucleation score: -0.294 ± 0.47

## SWGQVGYIEFFIGSSCHVS
  amyloid nucleation score: -0.378 ± 0.84

## LAINIFWLEDRCSPIGCNAG
  amyloid nucleation score: inactive

## RGSMRPPSVSQMQCRYKDRF
  amyloid nucleation score: -0.663 ± 1.1

## TLYFFKYFWMFVVMCKINKA
  amyloid nucleation score: inactive

## TKNDRN
  amyloid nucleation score: inactive

## SSYCGHCNYEPRSSWFILFF
  amyloid nucleation score: 1.61 ± 0.072

## DISSKY
  amyloid nucleation score: inactive

## NMQVHFIMCARSRLQGNHVS
  amyloid nucleation score: inactive

## LIRGK
  amyloid nucleation score: inactive

## YVEKVYYCSVRLRYAFLDFD
  amyloid nucleation score: inactive

## KMHWNAGDQLYVRSPTHSLR
  amyloid nucleation score: inactive

## YGVYINEAVEVRGPHAYMTS
  amyloid nucleation score: inactive

## LFFRLHYS
  amyloid nucleation score: inactive

## NCNKMCRSCFRCQKTFWVWF
  amyloid nucleation score: inactive

## YWVRNVLNS
  amyloid nucleation score: inactive

## VKWLLGMSEWKG
  amyloid nucleation score: -0.877 ± 2.4

## LLLTDSMSHLRFSHNSCMQQ
  amyloid nucleation score: 0.868 ± 0.17

## TLMYFILYYIGLYPE
  amyloid nucleation score: inactive

## HDYDAIRRLSRMCDVVEYSR
  amyloid nucleation score: inactive

## YKFSVTTL
  amyloid nucleation score: inactive

## SICCGDSVVFTVSLPVAGSF
  amyloid nucleation score: inactive

## FWRYAYNCYCGYSCDQIGDS
  amyloid nucleation score: inactive

## RFIGGTYH
  amyloid nucleation score: inactive

## MSLLASLLIMYIPIRYNVE
  amyloid nucleation score: inactive

## WIAVPRVGTWVGEKMS
  amyloid nucleation score: inactive

## GVHIMRGGGIYVVGGLESWA
  amyloid nucleation score: inactive

## KEMGW
  amyloid nucleation score: inactive

## LTSPFDPISLPKS
  amyloid nucleation score: inactive

## FSPFNAENSETVTCTGCSHC
  amyloid nucleation score: inactive

## KFMIVVKCSM
  amyloid nucleation score: 0.745 ± 0.2

## MICESFVSLLLVKCELLGTA
  amyloid nucleation score: inactive

## LGLISIAESRRLSRSDSMWW
  amyloid nucleation score: inactive

## VHSCLLCHWSFYWLLFFMRS
  amyloid nucleation score: inactive

## VVSLRQLRW
  amyloid nucleation score: inactive

## WDSMMYNMVKDDSGLWNHVE
  amyloid nucleation score: inactive

## TPVMRSVNMMVLKTI
  amyloid nucleation score: inactive

## NFDTDGTALRKLR
  amyloid nucleation score: inactive

## FAGCLGHPLERYVHLAWV
  amyloid nucleation score: inactive

## RNGDCLWIFR
  amyloid nucleation score: 0.732 ± 0.28

## VYDMCGNLQWAL
  amyloid nucleation score: inactive

## ILSNDEFTCKFCCSCSYRGG
  amyloid nucleation score: 0.956 ± 0.31

## TLLLIVDNGVNPSLKEMMLL
  amyloid nucleation score: inactive

## ISVSRKLLKCLVKCMNPGCG
  amyloid nucleation score: inactive

## TMVICLSLLRNMILHF
  amyloid nucleation score: inactive

## SNPVFFVMLAPLWVAQLSNP
  amyloid nucleation score: inactive

## VGQCFNELVRFNRSGISRLV
  amyloid nucleation score: inactive

## MDSCFRYVTYVTVLGLK
  amyloid nucleation score: inactive

## SSQDVTALLSRLN
  amyloid nucleation score: inactive

## NVNVNAFKMSLELRAR
  amyloid nucleation score: inactive

## ACCRSNDYDSYTPFDVVNHW
  amyloid nucleation score: inactive

## CYELLESS
  amyloid nucleation score: inactive

## HNNTIVASWRHDNRACA
  amyloid nucleation score: inactive

## TSYVEVGFLVSKYQTWWAVN
  amyloid nucleation score: inactive

## FSGRMVFNPPIISCSYSWSW
  amyloid nucleation score: inactive

## IIVVCDSDRLFLPNQPPNVI
  amyloid nucleation score: inactive

## EKDNKLLVICMLV
  amyloid nucleation score: inactive

## AIFRS
  amyloid nucleation score: inactive

## NCICWASYQTGLE
  amyloid nucleation score: inactive

## ACTIMWSSLKSIT
  amyloid nucleation score: inactive

## CVICSELLSSDCIIGDHRLR
  amyloid nucleation score: 1.7 ± 0.1

## LTHRAVGLSNVNTPPSFCMR
  amyloid nucleation score: 0.842 ± 0.2

## CWTMVASVTCYIVLLARWK
  amyloid nucleation score: inactive

## FTDFCVCGCNVFDVMFLLQS
  amyloid nucleation score: 2.67 ± 0.056

## ILKKRFRMVPLK
  amyloid nucleation score: inactive

## LCESSLKDNGVTSLFVWVLK
  amyloid nucleation score: inactive

## RRLPPIRCSHNLNSVPQD
  amyloid nucleation score: inactive

## FDYSIGL
  amyloid nucleation score: inactive

## GYLIIVIRLSAIDRHQ
  amyloid nucleation score: inactive

## EFKQSSWY
  amyloid nucleation score: inactive

## HQKALTAVMWFNNRRGGLFG
  amyloid nucleation score: inactive

## RSYTDMCP
  amyloid nucleation score: inactive

## IVERSGVSGIWYLSGDLAKV
  amyloid nucleation score: inactive

## KLVVNSKPYMNYVSVDEIIM
  amyloid nucleation score: inactive

## RLFLINSGASDPNSQMSNLR
  amyloid nucleation score: inactive

## FMNKLGDFNLP
  amyloid nucleation score: inactive

## DHWLLQYERRCKLGGFGY
  amyloid nucleation score: inactive

## ALQLHWYYRDTRRRCFTVCV
  amyloid nucleation score: inactive

## FVSDRSSGYTGMLIKDAL
  amyloid nucleation score: inactive

## LVCHFLDEDCLFACILQNMR
  amyloid nucleation score: inactive

## GLGMGAPQSILWVGDLLMTN
  amyloid nucleation score: inactive

## PVLSDNYLTDFAFCYQYYMS
  amyloid nucleation score: inactive

## HKLYEWACSRSTALNYIGQI
  amyloid nucleation score: inactive

## SKVIAPWYEEMRWWRSTGAV
  amyloid nucleation score: inactive

## ARIFH
  amyloid nucleation score: inactive

## PVLQIIRLADRLWLDIG
  amyloid nucleation score: inactive

## VNFLSDIVNFGCIVWFPPKI
  amyloid nucleation score: 2.32 ± 0.087

## VNEPDSVFMT
  amyloid nucleation score: inactive

## PGIIGTSNSFYQCVMWQVFG
  amyloid nucleation score: 2.13 ± 0.063

## PMAELIWDLVLRLKLSNKKR
  amyloid nucleation score: 1.43 ± 0.074

## QISEFKDVLLCVCVKISLGR
  amyloid nucleation score: 1.7 ± 0.09

## SDGDVMFLVKIEAGAFSGGM
  amyloid nucleation score: inactive

## CAVYFLR
  amyloid nucleation score: inactive

## GDSSVTWI
  amyloid nucleation score: inactive

## LKLYQAAL
  amyloid nucleation score: inactive

## AFFSFNAD
  amyloid nucleation score: inactive

## VGVFV
  amyloid nucleation score: inactive

## VVGIKV
  amyloid nucleation score: inactive

## VTLMILKGVFKFM
  amyloid nucleation score: -0.136 ± 1

## KRMLCWFINKVIYLRYLWQV
  amyloid nucleation score: inactive

## CLALSGIIIFELKAYLGSWC
  amyloid nucleation score: 1.27 ± 0.12

## HYAASSLYLTATHGFICSMC
  amyloid nucleation score: 1.73 ± 0.073

## QYLEAWRCTHFTVGALLLMG
  amyloid nucleation score: inactive

## FGEYVIRMSNCTLPKIMVIP
  amyloid nucleation score: inactive

## GDGYRQRVLLWMLVSAGPAS
  amyloid nucleation score: inactive

## RLIIYSFARSQL
  amyloid nucleation score: inactive

## RVNNGT
  amyloid nucleation score: inactive

## FGAAFQNYVKFPVPKMFTCH
  amyloid nucleation score: inactive

## FRMQGLKVREA
  amyloid nucleation score: inactive

## RDTGPPMFWREAVSRYR
  amyloid nucleation score: inactive

## TDYLFLSKWVTLCLSVWCNY
  amyloid nucleation score: -0.084 ± 0.3

## QGNWHYWCKDVRKLSLPKEL
  amyloid nucleation score: inactive

## FAFLWCLDWLNRKRIMSRVE
  amyloid nucleation score: -1.34 ± 2.5

## SEHFRN
  amyloid nucleation score: inactive

## YDVSRDATDCRVYCCPFSRS
  amyloid nucleation score: 1.23 ± 0.1

## REFKY
  amyloid nucleation score: inactive

## TKFNG
  amyloid nucleation score: 0.709 ± 0.19

## SVDYQGYNGKKYLFTISLRC
  amyloid nucleation score: inactive

## QKQFYGWVAESFARGATIPR
  amyloid nucleation score: 0.871 ± 0.21

## GCFYCQALNLHPLTSVHAD
  amyloid nucleation score: inactive

## SLCFIWTCMSLVVHTALSVH
  amyloid nucleation score: inactive

## TNDLYEFVPRAVILTSICLL
  amyloid nucleation score: inactive

## NLPLKFDTFTFLCVRLNSLS
  amyloid nucleation score: inactive

## HITLRYLNL
  amyloid nucleation score: 0.692 ± 0.12

## LSCSQKV
  amyloid nucleation score: inactive

## FTPLNDDNKCVVSYEY
  amyloid nucleation score: inactive

## CNNRVVWLKHGSLSREDGVQ
  amyloid nucleation score: inactive

## YFIALCINSDKPPVHGVAVV
  amyloid nucleation score: inactive

## WFVNL
  amyloid nucleation score: 1.38 ± 0.15

## RWNSISI
  amyloid nucleation score: inactive

## LSECRKD
  amyloid nucleation score: inactive

## FIGQGTNWYPYSVGANVSHH
  amyloid nucleation score: -0.241 ± 0.8

## VGPALNVVSWELV
  amyloid nucleation score: inactive

## YLVFFA
  amyloid nucleation score: inactive

## MSADSCCSSCLVSTGTRVTF
  amyloid nucleation score: inactive

## FRFSGWLCWSTALPILVRKD
  amyloid nucleation score: inactive

## LWWISWRRGSQSMVVSG
  amyloid nucleation score: inactive

## LEYYAS
  amyloid nucleation score: inactive

## MAEWENRLARYSGICGSSLP
  amyloid nucleation score: inactive

## SKFIRRT
  amyloid nucleation score: inactive

## IAKLVKFEEFRMQDCYIDWL
  amyloid nucleation score: inactive

## YCAGWFFMFSV
  amyloid nucleation score: 0.586 ± 0.2

## MWRPSHTYCLSNGKVECREC
  amyloid nucleation score: inactive

## DIVSLVNAFMISTIYTVTRK
  amyloid nucleation score: inactive

## MPSRCMLDSTIILYYWRFEH
  amyloid nucleation score: 0.781 ± 0.28

## RFDIK
  amyloid nucleation score: inactive

## ARIYCSWYPLYTFYLIHSH
  amyloid nucleation score: 0.644 ± 0.2

— the supplement of paper PMC12042874
